According to the nanobody polyreactivity screen of Harvey et al. (2022):

Assay: yeast display, Sf9 membrane polyspecificity reagent, FACS + sequencing; frameworks hold sequencing errors
Summary of the method: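 A nanobody's polyreactivity label depends on the gate it was sorted from. Yeast display cells were stained with 10% biotinylated, detergent-solubilized Sf9 membrane reagent for 1 hour at 4 °C, enriched on streptavidin microbeads and sorted by FACS. The low and high (top ~1%) gates were set on anti-HA fluorescence for expression and streptavidin fluorescence for reagent binding.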

| Sequence | polyreactivity (PSR sort gate) |
| --- | --- |
| QFQLLESGGGLVQAGGSLRLICAASGFICSLYAMGWYRPAPGKERELVATINRRGTSTFYADSVKGRFTISRDNAKNTVYLQMNSLKPEDTAVYYCNAYPGAAIRSTGRYDYWGQGTQVTVSS | low polyreactivity |
| QFQLVDSVRGLVQAGVSLRLSCAASGRIFVKYVIGSYRQAPGTESQLVAANRSYGGSPYYADSVKGRFTISRDNAKNTVYLQMNSLKPEDTAVYYCAKRLHYSAPRYTEYDEWGHGTQVTVSS | high polyreactivity |
| QFQLVESCGGLVQAGGSLRLSCAASGPIFKSNAMGCYRQAPGKERELVAAISGSGGRTYYAHSVKGRFTISRDNANNTVYLQMNSLKPEDTAVYYCNAGGSYYARGMDYWGQGTQVTVSS | high polyreactivity |
| QFQLVESGGCLVQAGGSLRISSASSGSTLANYAMGWYRQAPGKEREFVAAINSGGSTYYADSVKGRFTISRDIAKNTVYLQMNSLKPEDTAVYYCAARYASPRYKSKMDYWGQGTQVTVSS | high polyreactivity |
| QFQLVESGGGFVQAGGSLRLSGASSGIIFLANAMVWYRQSPGKEREFVAAISRSGSRTYDADSVKGRFTISRDHAKNSVYLQMNSVKPEDTAVYYCAAESPVLYYWGQGTQVTVSS | high polyreactivity |
| QFQLVESGGGLDQAGGSLRLSCAASGFTLNRNAMGWYRQAPGKETELVAAITRGGRTYYADSVKGRFTISRDNAKNTVYLQMNSLKPEDTAVYYCARTVGYRTLLESDSWGQGTQVTVSS | high polyreactivity |
| QFQLVESGGGLDQAGGSLRLSCAASGRTFAYYALGWYRQAPGKESELVAAISSGGGSTYYADSVKGRFTISRDNAKYTFYLQMNSLKPEDTAVYYCAKERSSSRSGGTYYYWGQGTQVTVSS | high polyreactivity |
| QFQLVESGGGLDQAGGSLRLSCAASGRTFHAYAMGSYRQAHGKGRELVAAITRTGTTHYADSVKGRFTISRDNAKNTVFLQMNSLKPEDTAVYYCAAQHVRVAAQFVLQGYDYWGQGTQVTVSS | low polyreactivity |
| QFQLVESGGGLFQAGGSLRLSSAASGITFRYYAMGWYRQAPGKERELVAAITRSGSSTFYADSVKGRFTISLDNAKNTVYLQMNSLKPEDTAVYYCAAESVRAVFPDRYKYWGQGTQVTVSS | high polyreactivity |
| QFQLVESGGGLGQAGGSNRLSCAASGRIFNIYAMGCYRQSPGKERELVADITSGGTKYADSVKGRFTISRDNAKNTVYLQMNSLKPEDTAVDYCAAEYLYYGGVDYWGQGTQVTVSS | high polyreactivity |
| QFQLVESGGGLLQAGGSLRLSCAASGRIFVPYVMGWYRQAPGKERELVASISDTDTSTYYADSVKGRFTISRDIAKNIVYLQMNSLKPEDTAVYYWNVDYWGQGTQVTVSS | low polyreactivity |
| QFQLVESGGGLVHAGGSLRLSCAASGITFQWNSMGWYRQAPGKERELVAVISSDGRTYYADSVKGRFTISRDNAKYTVYLQMNSLKPEDTAVYYCNADRSVIHRGYIWQPGRNDYWGHGTQVTVSS | low polyreactivity |
| QFQLVESGGGLVKAGGSLRLSCAASGLTNIYNARGWYRQAPGKERELVAAISGNGGDTYSADSVKGRFTISRDNAKNTVYLQMNSLKPEDTAVYYCAADYAYTPITWDEYWGQGTQVTVSS | low polyreactivity |
| QFQLVESGGGLVLAGGSLRLSCAASGRTYLVNAMGWYRQAPGKERELVAVITRGGSTNYADSVKGRFTISRDNAKNTDYLQMNSLKPEDTAVYYCAKQFSPYRSYGPVVRYDYWGLGTQVTVSS | low polyreactivity |
| QFQLVESGGGLVQAGASLRLSCAASGRIFEIYAMGWYRQAPGKDRELVAASSWRGVSTYYADSVKGRFTITRDNAKKTVYLQMNSLKPEDTAVYYCNKDVDYFWYVEYDYWGHGTQVTVSS | low polyreactivity |
| QFQLVESGGGLVQAGGILRLSCDASGSILARYALGWYRQAPGKERVLVAAISSRGGSTYYADSVKGRFSISRDNAKNTVYLQMNSLKPEDTAVYYCASYVYLQVEYDYWGQGTQVTVSS | low polyreactivity |
| QFQLVESGGGLVQAGGSIRSSCAASGIIFWGNAMGWYRQAPGKESELVATITGRGGSTYYADSVKGRFTISRDNAKNTVYLQMNSLKPEDTAVYYCNADSSRYYRALEYWGQGTQVTVSS | low polyreactivity |
| QFQLVESGGGLVQAGGSLPLSCAASGRTFGGNTMGRYREAPGKERELVAAISRRGGSTYYADSVKGRFTISRDNAKNTVYLQMNSLKPEDTAVYYCNKDGPSYSSYDYWGQGTQVTVSS | low polyreactivity |
| QFQLVESGGGLVQAGGSLRLICAASGITFYPNDMGWYRQSPGKERELVAAITTNDGDTYYADSVKGRFTISRDNAKNTVYLQMNSLKPEDTAVYYCAADSGSTSEYEYWGKGTQVTVSS | low polyreactivity |
| QFQLVESGGGLVQAGGSLRLICAASGLTFVYNDMGWYRQAHGKERELVAGITSGGSTYYADSVKGRFTISRDNAKNTVYLQMNSLKPEDTAVYYGAADGLSTDLFRPDSIVDYWGQGTQVTVSS | low polyreactivity |
| QFQLVESGGGLVQAGGSLRLRCAASGQTFRYYAMGWYRQAPGKERELVAAITRRGSTYYADSVKGRFTISRDNAKNTVNLQINSLKPEDTAVYYCATVTGFHSSPLRDLDYWGQGTQVTVSS | high polyreactivity |
| QFQLVESGGGLVQAGGSLRLSCAASGFIFTRYVMGWYRQAPGKERELVAAINWSGDSTYYADSVKGRFTISRDYAKNTVYLQLNSLKPEDTAVYYCNADYGWVDTYTNYDYWGQGTQVTVSS | low polyreactivity |

| Sequence | polyreactivity (PSR sort gate) |
| --- | --- |
| QFQLVESGGGLVQAGGSLRLSCAASGFTFYYYAMGWYRQAPGKERELVAAISSSGSSTYYADSVKGRFTISRVNAKNTVYLQMNSLKREDTAVYYWNARRYEYLWGDYWGQGTQVTVSS | high polyreactivity |
| QFQLVESGGGLVQAGGSLRLSCAASGGTFGNNDMGWYRQAPGKERELVAAIRSAGTTYYADSVKGRFTISRDNAKNTVYLQMNSLKPEDTAVYYCNADTTGYWSYGFQYYGEDYWGQGTQVTVSS | low polyreactivity |
| QFQLVESGGGLVQAGGSLRLSCAASGITFGSSAMGWYRQAPGKDRELVAAIDTSGDDTYYADSVKGRFTISRDNAKNTVYLQMNSLKPEDTAVYYCNAVSTASDEYDYWGQGSQVTVSS | low polyreactivity |
| QFQLVESGGGLVQAGGSLRLSCAASGITFGWYAMGWYRKATGKETELVASISSSGSTNYADSVKGRFTISRDNAKNTVYLQMNSLKPEDTAVYYCNKDYLLRQYYIYVIEGDYWGQGTLVTVSS | low polyreactivity |
| QFQLVESGGGLVQAGGSLRLSCAASGLIFPKYAMGWYRQAPGKEREFVAAISGRGGTTYYADSVKGRFTISRDNAKNTVYLQMNSLKPEDTAVYYCAAGGPWANIYGNGYWGQGTQVTVSS | high polyreactivity |
| QFQLVESGGGLVQAGGSLRLSCAASGLTIDPNAMGWYRQAPGKERELVATITQTDGSTYYADSVKGRFTISRDNAKNTVYLQMNSLKPEDTAVYYCVGLVSRGSDYWGQGTQVTVSS | low polyreactivity |
| QFQLVESGGGLVQAGGSLRLSCAASGRIFGENARGWYSQATRKEREFVAVISISDASTYYADSVKGRFTITRDNAKNTVYLQMNSLKREDTAVDYCAADLTDFLYVASDYWGQGTQVTVSS | low polyreactivity |
| QFQLVESGGGLVQAGGSLRLSCAASGRIFNYYAMGWYRQAPGKERELVAAISARGGSTYYADSVKGRFTISRDNAKNTVYLQMNSLKPEDTAVYYCAVSSGSYGYGYWGQGTQVTVSS | high polyreactivity |
| QFQLVESGGGLVQAGGSLRLSCAASGRIFRSNAMVWYRQAPGKERELVAAISWSGGSTYYADSVKGRFTISRDNAKNTVYLQMNSLKPEDTAVFYCAARYRGSRYDYWGQGTQVTVSS | high polyreactivity |
| QFQLVESGGGLVQAGGSLRLSCAASGRIFVPNAMGWYRQAPGKEREFVAAINSGGSTYYADSVKGRFTISRDNAKNTVYLQMNSMKPEDTAVYYCAAVDFSSGYYGRLARYYYWGQGTQVTVSS | high polyreactivity |
| QFQLVESGGGLVQAGGSLRLSCAASGRILSIYAMGWYSQAPGKESEMVAGITGGGRTHSADSVKGRFTISRDNAKNTVYLQMYSLKPEDTAVYSCSSLWRYQYRSKLSYYYWGQGTQVTVSS | high polyreactivity |
| QFQLVESGGGLVQAGGSLRLSCAASGRILYPNTMGWYRQAPGKEREVVAAISGSGSRTYYADSVKGRFTISRDNAKNNVYLQMNSLKPEDTAVYYCADRGDGTVGVSSPGKRRHYYWGQGTQVTVSS | high polyreactivity |
| QFQLVESGGGLVQAGGSLRLSCAASGRIRDNARGWYRQAPGKERELVAAISSSGGSTYYADSVKGRFTISRDNAKNTVYLQMNSLKPEDTAVYYCNAVRTGKIFGSWGQGTQVTVSS | high polyreactivity |
| QFQLVESGGGLVQAGGSLRLSCAASGRIVGRNAMGWYRQAPGKERELVAAISGNGGSTYYADSVKGRFTISRDNAKINVYLQMNSLKPEDTAVYYCATKYFSRMDYWGKGTQVTVSS | high polyreactivity |
| QFQLVESGGGLVQAGGSLRLSCAASGRIYGYYALGWYRQAPGQERELVATITFGGGSTYYTDSVKGRFTISRDNAKNTVSLQMNSLKPEDTALYYCAADSGYLGIYGDEYSWGHGTQVTVSS | low polyreactivity |
| QFQLVESGGGLVQAGGSLRLSCAASGRSFNRNAMGWYRQAPGKERELVAAISRSGTRTYYADSVKGRFTISRDNAKNTVYLQMNSLKPEDTAVYYCNALRVDGGDYWGQGTQVTVSS | high polyreactivity |
| QFQLVESGGGLVQAGGSLRLSCAASGRTFASNAMGWYRQAPGKERELVADITWDGGRTYYADSVKGRFTISRDNAKNTVYLQMNSLKPEDTAVYYCAARDTFPRRYGYWGQGTQVTVSS | high polyreactivity |
| QFQLVESGGGLVQAGGSLRLSCAASGRTFGFNAMGWYIQAPGKERELVAAISGSGGRTYYADSVKGRFTISRDKPKNTVYLQMNSLKPEDTAVYYCAAGARRGGSGYLGQGTQVTVSS | high polyreactivity |
| QFQLVESGGGLVQAGGSLRLSCAASGRTFKVYAMGWYRQAPGKERELVAAITGGGSTNYADSEKGRFTISRDNAKNTVYLQMNRLKAEDTAVYYGNARYYYRLVKWSRFSSYDYWGQGTQVTVSS | low polyreactivity |
| QFQLVESGGGLVQAGGSLRLSCAASGRTFSRTAMGWYRQAPGKERELVAAITKGGGSTYYADSVKGRFTISRDNAKNTVYLQMNSLKPEDTAVYYCAAYKPSTRRYDYWGQGTQVTVSS | high polyreactivity |
| QFQLVESGGGLVQAGGSLRLSCAASGRTFWYYDMGWYRQAPGKERELFATITSGGSTNYADSVKGRFTISRDNAKNTVYLQMNSLKPEDTAVYYCAAARWRWQLARDDYWGQGTQVTLSS | high polyreactivity |
